In the supplement of paper PMC9112550, “Optimization of the antimicrobial peptide Bac7 by deep mutational scanning” (BMC Biology, 2022):

tested on: Escherichia coli TOP10; assay: shrunken log2 fold change of peptide-encoding DNA abundance (4.5 h post-induction vs induction); higher = less antimicrobial activity (less host growth inhibition); conditions: time post-induction: 4.5 h; library: site-saturation at positions 5, 18, 19, 20
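Note: peptides expressed intracellularly from a pBAD plasmid library in pooled LB shake-flask culture, induced with 0.3% L-arabinose, DNA abundance read by NGS, three biological replicates, DESeq2 with apeglm shrinkage.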

Going from RRIRKRPPRLPRPRPRPDHHPRP to RRIRKRPPRLPRPRPRPWGVPRP, the “shrunken log2 fold change” value rises from -0.37 to 0.291.

RRIRQRPPRLPRPRPRPKAYPRP and RRIRERPPRLPRPRPRPLIKPRP are within 0.2 log units of each other in “shrunken log2 fold change” value: 0.0697 for the first, -0.12 for the second.

RRIRVRPPRLPRPRPRPQDQPRP and RRIRSRPPRLPRPRPRPRCWPRP are within 0.2 log units of each other in “shrunken log2 fold change” value: 0.225 for the first, 0.329 for the second.

First: RRIRVRPPRLPRPRPRPFYFPRP
Second: RRIRVRPPRLPRPRPRPVNDPRP
The “shrunken log2 fold change” value of the first is lower: -0.493 for the first, -0.201 for the second.

RRIRTRPPRLPRPRPRPPVPPRP and RRIRKRPPRLPRPRPRPQTEPRP are within 0.2 log units of each other in “shrunken log2 fold change” value: 0.139 for the first, -0.0229 for the second.

RRIRHRPPRLPRPRPRPFRKPRP and RRIRERPPRLPRPRPRPQVSPRP are within 0.2 log units of each other in “shrunken log2 fold change” value: 0.00884 for the first, -0.0262 for the second.

First: RRIRWRPPRLPRPRPRPIYKPRP
Second: RRIRLRPPRLPRPRPRPDHIPRP
The “shrunken log2 fold change” value of the first is lower: -0.596 for the first, -0.221 for the second.

RRIRWRPPRLPRPRPRPWHFPRP and RRIRCRPPRLPRPRPRPTSTPRP are within 0.2 log units of each other in “shrunken log2 fold change” value: -0.265 for the first, -0.165 for the second.

Compared with RRIRLRPPRLPRPRPRPDAMPRP, RRIRTRPPRLPRPRPRPTRNPRP is lower in “shrunken log2 fold change” value: 0.224 for the first, -0.0423 for the second.

RRIRIRPPRLPRPRPRPGYQPRP and RRIRVRPPRLPRPRPRPKPMPRP are within 0.2 log units of each other in “shrunken log2 fold change” value: -0.0481 for the first, 0.131 for the second.

Compared with RRIRCRPPRLPRPRPRPVRPPRP, RRIRIRPPRLPRPRPRPQEWPRP is lower in “shrunken log2 fold change” value: 0.504 for the first, -0.0108 for the second.

Going from RRIRPRPPRLPRPRPRPYWHPRP to RRIRSRPPRLPRPRPRPGWIPRP, the “shrunken log2 fold change” value rises from -0.405 to 0.0994.

RRIRNRPPRLPRPRPRPKRTPRP and RRIRHRPPRLPRPRPRPFNQPRP are within 0.2 log units of each other in “shrunken log2 fold change” value: -0.0256 for the first, -0.0213 for the second.

RRIRVRPPRLPRPRPRPIMDPRP and RRIRHRPPRLPRPRPRPHALPRP are within 0.2 log units of each other in “shrunken log2 fold change” value: -0.151 for the first, 0.0244 for the second.

First: RRIRIRPPRLPRPRPRPIQRPRP
Second: RRIRIRPPRLPRPRPRPDKAPRP
The “shrunken log2 fold change” value of the first is lower: -0.265 for the first, -0.00957 for the second.

First: RRIRQRPPRLPRPRPRPTGVPRP
Second: RRIRQRPPRLPRPRPRPNPFPRP
The “shrunken log2 fold change” value of the first is higher: 0.216 for the first, -0.26 for the second.

Compared with RRIRCRPPRLPRPRPRPGSMPRP, RRIRYRPPRLPRPRPRPYERPRP is higher in “shrunken log2 fold change” value: -0.24 for the first, -0.00804 for the second.

First: RRIRDRPPRLPRPRPRPMQNPRP
Second: RRIRNRPPRLPRPRPRPTFFPRP
The “shrunken log2 fold change” value of the first is higher: 0.269 for the first, -0.139 for the second.

RRIRIRPPRLPRPRPRPLFDPRP and RRIRIRPPRLPRPRPRPDTEPRP are within 0.2 log units of each other in “shrunken log2 fold change” value: -0.803 for the first, -0.853 for the second.

Compared with RRIRFRPPRLPRPRPRPMMRPRP, RRIRLRPPRLPRPRPRPPRCPRP is higher in “shrunken log2 fold change” value: 0.126 for the first, 0.744 for the second.

First: RRIRRRPPRLPRPRPRPTGMPRP
Second: RRIRPRPPRLPRPRPRPKNEPRP
The “shrunken log2 fold change” value of the first is higher: 0.906 for the first, -0.119 for the second.

Going from RRIRKRPPRLPRPRPRPVMVPRP to RRIRWRPPRLPRPRPRPRDEPRP, the “shrunken log2 fold change” value falls from 0.315 to 0.0548.

First: RRIRRRPPRLPRPRPRPTTQPRP
Second: RRIRCRPPRLPRPRPRPIAQPRP
The “shrunken log2 fold change” value of the first is higher: 0.356 for the first, 0.00422 for the second.

RRIRHRPPRLPRPRPRPLSNPRP and RRIRQRPPRLPRPRPRPGQEPRP are within 0.2 log units of each other in “shrunken log2 fold change” value: -0.174 for the first, -0.018 for the second.

Compared with RRIRWRPPRLPRPRPRPGSFPRP, RRIRHRPPRLPRPRPRPCPFPRP is lower in “shrunken log2 fold change” value: 0.0155 for the first, -0.654 for the second.

RRIRHRPPRLPRPRPRPEKHPRP and RRIRVRPPRLPRPRPRPLLNPRP are within 0.2 log units of each other in “shrunken log2 fold change” value: 0.0511 for the first, 0.159 for the second.

RRIRARPPRLPRPRPRPPNLPRP and RRIRSRPPRLPRPRPRPEQAPRP are within 0.2 log units of each other in “shrunken log2 fold change” value: 0.342 for the first, 0.289 for the second.

RRIRHRPPRLPRPRPRPHGTPRP and RRIRQRPPRLPRPRPRPFCKPRP are within 0.2 log units of each other in “shrunken log2 fold change” value: -0.0524 for the first, -0.0799 for the second.

First: RRIRWRPPRLPRPRPRPPDTPRP
Second: RRIRARPPRLPRPRPRPYFLPRP
The “shrunken log2 fold change” value of the first is higher: 0.525 for the first, -0.557 for the second.

Compared with RRIRKRPPRLPRPRPRPQGKPRP, RRIRYRPPRLPRPRPRPEHKPRP is lower in “shrunken log2 fold change” value: 0.0114 for the first, -0.605 for the second.

First: RRIRGRPPRLPRPRPRPPSEPRP
Second: RRIRQRPPRLPRPRPRPWVCPRP
The “shrunken log2 fold change” value of the first is higher: 0.856 for the first, -0.208 for the second.

Going from RRIRDRPPRLPRPRPRPGWNPRP to RRIRTRPPRLPRPRPRPPVMPRP, the “shrunken log2 fold change” value falls from 0.69 to -0.113.

First: RRIRVRPPRLPRPRPRPSKHPRP
Second: RRIRTRPPRLPRPRPRPNRQPRP
The “shrunken log2 fold change” value of the first is lower: -0.538 for the first, 0.0749 for the second.

Compared with RRIRGRPPRLPRPRPRPTACPRP, RRIRYRPPRLPRPRPRPYWFPRP is lower in “shrunken log2 fold change” value: 1.35 for the first, -0.142 for the second.

First: RRIRRRPPRLPRPRPRPEIPPRP
Second: RRIRKRPPRLPRPRPRPDLVPRP
The “shrunken log2 fold change” value of the first is lower: 0.163 for the first, 0.662 for the second.

Going from RRIRGRPPRLPRPRPRPQDCPRP to RRIRIRPPRLPRPRPRPQIQPRP, the “shrunken log2 fold change” value falls from 0.0863 to -0.235.

First: RRIRWRPPRLPRPRPRPWYEPRP
Second: RRIRCRPPRLPRPRPRPVIPPRP
The “shrunken log2 fold change” value of the first is higher: 0.0012 for the first, -0.392 for the second.

For RRIRFRPPRLPRPRPRPYVTPRP, the “shrunken log2 fold change” value was -0.148.
